Test results reported in the supplement of paper PMC10724198.

system: Saccharomyces cerevisiae; assay: protein stability index of tFT-peptide fusion in wild type (PSI (0-1 scale)); higher = more stable (slower turnover); conditions: genetic background: wild type
Method: (§1)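 MPS profiling in S. cerevisiae of two library types built from selected 12-aa C-degron peptides (IN1, IN2, LN1, LN3, VN2, R1-R5, W1-W3, Atg1 and Rpa12 C-termini): saturation mutagenesis libraries and C-terminal +1 capping libraries (13 aa). Each peptide is fused to the C-terminus of a sfGFP-mCherry timer, after a GGGS linker. Cells are FACS-sorted into 8 mCherry/sfGFP bins and sequenced. PSI runs from 0 (unstable) to 1 (stable), measured once in wild type and in the das1Δ or doa10Δ background.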
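Wherever protein stability index of tFT-peptide fusion in deletion strain of DOA10 is given: PSI per variant is the weighted mean of its sequencing read distribution over the sorted stability bins, counting only variants with over 10 reads summed across bins.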
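Wherever protein stability index of tFT-peptide fusion in wild type is given: PSI derived as read-weighted mean over the 8 sorting bins, only variants exceeding 10 total reads kept, mCherry placed adjacent to the peptide and sfGFP distal.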

Point of comparison: GLYMCSDGCWFR, protein stability index 0.65. Against it:
- AIRLPMCPLLLR — lower, 0.27
- AISLPMCPLLLR — lower, 0.226
- AITFPMCPLLLR — lower, 0.3
- AITLIMCPLLLR — lower, 0.465
- AITLPGCPLLLR — lower, 0.327
- AITLPMCPALLR — lower, 0.493
- AITLPMCPLLLC — lower, 0.134
- AITLPMCPLLLRK — lower, 0.43
- AITLPMCPLLLRM — lower, 0.172
- AITLPMCPLLLRQ — lower, 0.34
- AITLPMCPLLLS — lower, 0.405
- AITLPMCPLLLT — lower, 0.449
- AITLPMCPLLPR — higher, 0.667
- AITLPMHPLLLR — lower, 0.25
- AITLRMCPLLLR — lower, 0.389
- AITQPMCPLLLR — lower, 0.508
- ATTLPMCPLLLR — lower, 0.383
- CGVSLPILLFFR — lower, 0.0581
- CLVMLPILLFFR — lower, 0.0682
- CLVQLPILLFFR — lower, 0.0481
- CLVSKPILLFFR — lower, 0.17
- CLVSLCILLFFR — lower, 0.23
- CLVSLLILLFFR — lower, 0.319
- CLVSLNILLFFR — lower, 0.17
- CLVSLPIELFFR — lower, 0.596
- CLVSLPIKLFFR — lower, 0.123
- CLVSLPILCFFR — lower, 0.0771
- CLVSLPILLFFC — lower, 0.0908
- CLVSLPILLFFK — lower, 0.0574
- CLVSLPILLFFW — lower, 0.252
- CLVSLPILLFNR — lower, 0.394
- CLVSLPILLFVR — lower, 0.0446
- CLVSLPILLIFR — lower, 0.0669
- CLVSLPMLLFFR — lower, 0.0605
- CLVSLPWLLFFR — lower, 0.144
- CLVSNPILLFFR — lower, 0.368
- CLVSQPILLFFR — lower, 0.227
- CLVVLPILLFFR — lower, 0.0796
- GLQMCSVGCWFR — lower, 0.195
- GLTMCSVGCWFR — lower, 0.219
- GLVMCSVGCWFR — lower, 0.19
- GLYGCSVGCWFR — lower, 0.504
- GLYHCSVGCWFR — lower, 0.409
- GLYMASVGCWFR — lower, 0.322
- GLYMCMVGCWFR — lower, 0.25
- GLYMCSGGCWFR — lower, 0.47
- GLYMCSSGCWFR — lower, 0.435
- GLYMCSVGCDFR — lower, 0.641
- GLYMCSVGCPFR — lower, 0.642
- GLYMCSVGCWFC — lower, 0.261
- GLYMCSVGCWFH — lower, 0.401
- GLYMCSVGCWFN — lower, 0.29
- GLYMCSVGCWFRD — lower, 0.431
- GLYMCSVGCWFRR — lower, 0.347
- GLYMCSVGCWFW — lower, 0.333
- GLYMCSVGCWHR — higher, 0.668
- GLYMCSVGNWFR — lower, 0.611
- GLYMCSVGRWFR — lower, 0.643
- GLYMESVGCWFR — lower, 0.415
- ILYMCSVGCWFR — lower, 0.289
- IVTRLDAIYFRI — lower, 0.24
- RATRLDAIYFRI — lower, 0.493
- RHLRVLLPLYFR — lower, 0.277
- RITLPMCPLLLR — lower, 0.296
- RMTRLDAIYFRI — lower, 0.429
- RNTRLDAIYFRI — lower, 0.529
- RSFRVLLPLYFR — lower, 0.162
- RSIRVLLPLYFR — lower, 0.225
- RSLRVELPLYFR — lower, 0.17
- RSLRVLIPLYFR — lower, 0.23
- RSLRVLLPLCFR — lower, 0.405
- RSLRVLLPLFFR — lower, 0.38
- RSLRVLLPLMFR — lower, 0.288
- RSLRVLLPLYER — lower, 0.645
- RSLRVLLPLYFA — lower, 0.286
- RSLRVLLPLYFH — lower, 0.365
- RSLRVLLPLYFRD — lower, 0.346
- RSLRVLLPLYFRK — lower, 0.293
- RSLRVLLPLYFRL — lower, 0.194
- RSLRVLLPLYFY — lower, 0.263
- RSLRVLLPLYNR — lower, 0.623
- RSLRVLLPPYFR — higher, 0.658
- RSLRVLLPQYFR — lower, 0.642
- RSLRVLLPYYFR — lower, 0.545
- RSLRVNLPLYFR — lower, 0.18
- RSLRVPLPLYFR — lower, 0.113
- RSYRVLLPLYFR — lower, 0.217
- RVDRLDAIYFRI — lower, 0.559
- RVHRLDAIYFRI — lower, 0.438
- RVNRLDAIYFRI — lower, 0.48
- RVRRLDAIYFRI — lower, 0.385
- RVTCLDAIYFRI — lower, 0.477
- RVTRCDAIYFRI — lower, 0.467
- RVTRLDACYFRI — lower, 0.532
- RVTRLDAILFRI — lower, 0.453
- RVTRLDAIYFKI — lower, 0.352
- RVTRLDAIYFRA — lower, 0.608
- RVTRLDAIYFRIA — lower, 0.0756
- RVTRLDAIYFRII — lower, 0.0611
- RVTRLDAKYFRI — higher, 0.673
- RVTRLDAMYFRI — lower, 0.549
- RVTRLDARYFRI — higher, 0.667
- RVTRLEAIYFRI — lower, 0.268
- RVTRLHAIYFRI — lower, 0.172
- RVTRLIAIYFRI — lower, 0.168
- RVTRLKAIYFRI — lower, 0.155
- RVTRLPAIYFRI — lower, 0.217
- RVTRLTAIYFRI — lower, 0.172
- RVTRLYAIYFRI — lower, 0.134
- TSLRVLLPLYFR — lower, 0.294
- WLVSLPILLFFR — lower, 0.105

system: Saccharomyces cerevisiae; assay: protein stability index of tFT-peptide fusion in deletion strain of DOA10 (PSI (0-1 scale)); higher = more stable (slower turnover); conditions: not given
Method: as §1

Point of comparison: GLYMCSVGRWFR, protein stability index 0.668. Against it:
- AIRLPMCPLLLR — lower, 0.649
- AISLPMCPLLLR — lower, 0.655
- AITFPMCPLLLR — higher, 0.676
- AITLIMCPLLLR — lower, 0.658
- AITLPGCPLLLR — higher, 0.683
- AITLPMCPALLR — higher, 0.672
- AITLPMCPLLLC — lower, 0.184
- AITLPMCPLLLRK — higher, 0.67
- AITLPMCPLLLRM — lower, 0.573
- AITLPMCPLLLRQ — lower, 0.634
- AITLPMCPLLLS — lower, 0.443
- AITLPMCPLLLT — lower, 0.491
- AITLPMCPLLPR — higher, 0.673
- AITLPMHPLLLR — lower, 0.643
- AITLRMCPLLLR — lower, 0.643
- AITQPMCPLLLR — higher, 0.701
- ATTLPMCPLLLR — higher, 0.673
- CGVSLPILLFFR — lower, 0.622
- CLVMLPILLFFR — lower, 0.426
- CLVQLPILLFFR — lower, 0.597
- CLVSKPILLFFR — lower, 0.627
- CLVSLCILLFFR — lower, 0.334
- CLVSLLILLFFR — lower, 0.408
- CLVSLNILLFFR — lower, 0.323
- CLVSLPIELFFR — lower, 0.656
- CLVSLPIKLFFR — lower, 0.652
- CLVSLPILCFFR — lower, 0.558
- CLVSLPILLFFC — lower, 0.249
- CLVSLPILLFFK — lower, 0.577
- CLVSLPILLFFW — lower, 0.435
- CLVSLPILLFNR — lower, 0.588
- CLVSLPILLFVR — lower, 0.249
- CLVSLPILLIFR — lower, 0.537
- CLVSLPMLLFFR — lower, 0.626
- CLVSLPWLLFFR — lower, 0.65
- CLVSNPILLFFR — lower, 0.661
- CLVSQPILLFFR — lower, 0.628
- CLVVLPILLFFR — lower, 0.451
- GLQMCSVGCWFR — lower, 0.656
- GLTMCSVGCWFR — higher, 0.674
- GLVMCSVGCWFR — lower, 0.45
- GLYGCSVGCWFR — higher, 0.683
- GLYHCSVGCWFR — higher, 0.674
- GLYMASVGCWFR — higher, 0.684
- GLYMCMVGCWFR — lower, 0.462
- GLYMCSDGCWFR — higher, 0.718
- GLYMCSGGCWFR — higher, 0.687
- GLYMCSSGCWFR — higher, 0.679
- GLYMCSVGCDFR — lower, 0.663
- GLYMCSVGCPFR — higher, 0.677
- GLYMCSVGCWFC — lower, 0.287
- GLYMCSVGCWFH — lower, 0.497
- GLYMCSVGCWFN — lower, 0.343
- GLYMCSVGCWFRD — lower, 0.649
- GLYMCSVGCWFRR — lower, 0.646
- GLYMCSVGCWFW — lower, 0.453
- GLYMCSVGCWHR — higher, 0.722
- GLYMCSVGNWFR — higher, 0.683
- GLYMESVGCWFR — higher, 0.703
- ILYMCSVGCWFR — lower, 0.486
- IVTRLDAIYFRI — lower, 0.612
- RATRLDAIYFRI — higher, 0.681
- RHLRVLLPLYFR — higher, 0.678
- RITLPMCPLLLR — lower, 0.651
- RMTRLDAIYFRI — lower, 0.655
- RNTRLDAIYFRI — lower, 0.664
- RSFRVLLPLYFR — lower, 0.612
- RSIRVLLPLYFR — lower, 0.643
- RSLRVELPLYFR — higher, 0.685
- RSLRVLIPLYFR — lower, 0.639
- RSLRVLLPLCFR — higher, 0.687
- RSLRVLLPLFFR — higher, 0.681
- RSLRVLLPLMFR — lower, 0.654
- RSLRVLLPLYER — lower, 0.658
- RSLRVLLPLYFA — lower, 0.413
- RSLRVLLPLYFH — lower, 0.583
- RSLRVLLPLYFRD — lower, 0.647
- RSLRVLLPLYFRK — lower, 0.593
- RSLRVLLPLYFRL — lower, 0.496
- RSLRVLLPLYFY — lower, 0.435
- RSLRVLLPLYNR — lower, 0.666
- RSLRVLLPPYFR — higher, 0.689
- RSLRVLLPQYFR — higher, 0.689
- RSLRVLLPYYFR — higher, 0.678
- RSLRVNLPLYFR — higher, 0.672
- RSLRVPLPLYFR — higher, 0.687
- RSYRVLLPLYFR — lower, 0.637
- RVDRLDAIYFRI — lower, 0.639
- RVHRLDAIYFRI — lower, 0.659
- RVNRLDAIYFRI — lower, 0.659
- RVRRLDAIYFRI — lower, 0.641
- RVTCLDAIYFRI — lower, 0.655
- RVTRCDAIYFRI — higher, 0.677
- RVTRLDACYFRI — higher, 0.707
- RVTRLDAILFRI — higher, 0.705
- RVTRLDAIYFKI — lower, 0.595
- RVTRLDAIYFRA — higher, 0.697
- RVTRLDAIYFRIA — lower, 0.136
- RVTRLDAIYFRII — lower, 0.127
- RVTRLDAKYFRI — higher, 0.709
- RVTRLDAMYFRI — higher, 0.698
- RVTRLDARYFRI — higher, 0.718
- RVTRLEAIYFRI — lower, 0.62
- RVTRLHAIYFRI — lower, 0.372
- RVTRLIAIYFRI — lower, 0.348
- RVTRLKAIYFRI — lower, 0.32
- RVTRLPAIYFRI — lower, 0.636
- RVTRLTAIYFRI — lower, 0.351
- RVTRLYAIYFRI — lower, 0.294
- TSLRVLLPLYFR — lower, 0.654
- WLVSLPILLFFR — lower, 0.518
